Earlier results on 1 substance are cited in paper PMC4277939.

In the data set the target is EAG channel PAS domain PAS domain (Mus musculus) (UniProt Q60603).

As for “EAG channel CNBh domain CNBh domain (from UniProt Q60603)”, the Kd is 10 µM.

A word on the Kd: it is the constant that tells how readily two partners part at equilibrium.
